Assays:
[1] = molecular target: Alexa647-labeled RhoGDI1 L56A (bovine, UniProt P19803 1-204, L56A, Alexa647 acceptor (site not stated)); experiment: FRET
[2] = molecular target: Alexa647-labeled RhoGDI1 L56V (bovine, UniProt P19803 1-204, L56V, Alexa647 acceptor (site not stated)); experiment: FRET

koff [1]: 0.08 s⁻¹ | koff [2]: 0.003 s⁻¹
B1: Cy3-labeled, prenylated Cdc42 (natural protein)
chain: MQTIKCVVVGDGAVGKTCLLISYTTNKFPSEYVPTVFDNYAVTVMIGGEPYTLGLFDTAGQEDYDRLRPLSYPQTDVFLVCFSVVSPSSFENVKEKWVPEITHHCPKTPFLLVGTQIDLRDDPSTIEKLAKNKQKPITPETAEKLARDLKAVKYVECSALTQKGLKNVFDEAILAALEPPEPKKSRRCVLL
modifications: prenylated (residue not stated); Cy3 donor (site not stated)

Source: publication PMC7616425 (2024)
